# Starred links: 1 amine or outer side, 2 acyl side, 3 side chain; linkers in the order of their positions; H or OH if unused. Positions of bridges follow the written chain, without caps; N, C: chain ends. Non-standard residues stand in square brackets, D forms with d. Groups on a side chain read outwards from the residue. No end group written: not given here. *: point of attachment. Phe(4-COOH) = N[C@@H](Cc1ccc(C(=O)O)cc1)C(=O)O; C20 diacid = O=C(O)CCCCCCCCCCCCCCCCCCC(=O)*; C19 diacid = O=C(O)CCCCCCCCCCCCCCCCCC(=O)*; C18 diacid = O=C(O)CCCCCCCCCCCCCCCCC(=O)*; γGlu = O=C(O)[C@H](CCC(=O)[*:2])N[*:1]
# B1: Compound A38 (peptide)
# peptide: PKPEK([γGlu-γGlu-C18 diacid])PGEDASPKEWNRYYKDLRHYLNWLTRQRF-NH2
# modifications: N-terminus assumed
# SMILES: CC(C)C[C@H](NC(=O)[C@H](CC(=O)O)NC(=O)[C@H](CCCCN)NC(=O)[C@H](Cc1ccc(O)cc1)NC(=O)[C@H](Cc1ccc(O)cc1)NC(=O)[C@H](CCCNC(=N)N)NC(=O)[C@H](CC(N)=O)NC(=O)[C@H](Cc1c[nH]c2ccccc12)NC(=O)[C@H](CCC(=O)O)NC(=O)[C@H](CCCCN)NC(=O)[C@@H]1CCCN1C(=O)[C@H](CO)NC(=O)[C@H](C)NC(=O)[C@H](CC(=O)O)NC(=O)[C@H](CCC(=O)O)NC(=O)CNC(=O)[C@@H]1CCCN1C(=O)[C@H](CCCCNC(=O)CC[C@H](NC(=O)CC[C@H](NC(=O)CCCCCCCCCCCCCCCCC(=O)O)C(=O)O)C(=O)O)NC(=O)[C@H](CCC(=O)O)NC(=O)[C@@H]1CCCN1C(=O)[C@H](CCCCN)NC(=O)[C@@H]1CCCN1)C(=O)N[C@@H](CCCNC(=N)N)C(=O)N[C@@H](Cc1c[nH]cn1)C(=O)N[C@@H](Cc1ccc(O)cc1)C(=O)N[C@@H](CC(C)C)C(=O)N[C@@H](CC(N)=O)C(=O)N[C@@H](Cc1c[nH]c2ccccc12)C(=O)N[C@@H](CC(C)C)C(=O)N[C@H](C(=O)N[C@@H](CCCNC(=N)N)C(=O)N[C@@H](CCC(N)=O)C(=O)N[C@@H](CCCNC(=N)N)C(=O)N[C@@H](Cc1ccccc1)C(N)=O)[C@@H](C)O
# B2: Compound A40 (peptide)
# peptide: PKPEKPGK([γGlu-γGlu-C19 diacid])DASPKEWDRYYKDLRHYLNWLTRQRF-NH2
# modifications: lactam 16-20; N-terminus assumed
# SMILES: CC(C)C[C@H](NC(=O)[C@H](CC(=O)O)NC(=O)[C@@H]1CCCCNC(=O)C[C@H](NC(=O)[C@H](Cc2c[nH]c3ccccc23)NC(=O)[C@H](CCC(=O)O)NC(=O)[C@H](CCCCN)NC(=O)[C@@H]2CCCN2C(=O)[C@H](CO)NC(=O)[C@H](C)NC(=O)[C@H](CC(=O)O)NC(=O)[C@H](CCCCNC(=O)CC[C@H](NC(=O)CC[C@H](NC(=O)CCCCCCCCCCCCCCCCCC(=O)O)C(=O)O)C(=O)O)NC(=O)CNC(=O)[C@@H]2CCCN2C(=O)[C@H](CCCCN)NC(=O)[C@H](CCC(=O)O)NC(=O)[C@@H]2CCCN2C(=O)[C@H](CCCCN)NC(=O)[C@@H]2CCCN2)C(=O)N[C@@H](CCCNC(=N)N)C(=O)N[C@@H](Cc2ccc(O)cc2)C(=O)N[C@@H](Cc2ccc(O)cc2)C(=O)N1)C(=O)N[C@@H](CCCNC(=N)N)C(=O)N[C@@H](Cc1c[nH]cn1)C(=O)N[C@@H](Cc1ccc(O)cc1)C(=O)N[C@@H](CC(C)C)C(=O)N[C@@H](CC(N)=O)C(=O)N[C@@H](Cc1c[nH]c2ccccc12)C(=O)N[C@@H](CC(C)C)C(=O)N[C@H](C(=O)N[C@@H](CCCNC(=N)N)C(=O)N[C@@H](CCC(N)=O)C(=O)N[C@@H](CCCNC(=N)N)C(=O)N[C@@H](Cc1ccccc1)C(N)=O)[C@@H](C)O
# Target: T1, NPY5R
# T1 sequence (Q15761 1-445, species assumed, looked up): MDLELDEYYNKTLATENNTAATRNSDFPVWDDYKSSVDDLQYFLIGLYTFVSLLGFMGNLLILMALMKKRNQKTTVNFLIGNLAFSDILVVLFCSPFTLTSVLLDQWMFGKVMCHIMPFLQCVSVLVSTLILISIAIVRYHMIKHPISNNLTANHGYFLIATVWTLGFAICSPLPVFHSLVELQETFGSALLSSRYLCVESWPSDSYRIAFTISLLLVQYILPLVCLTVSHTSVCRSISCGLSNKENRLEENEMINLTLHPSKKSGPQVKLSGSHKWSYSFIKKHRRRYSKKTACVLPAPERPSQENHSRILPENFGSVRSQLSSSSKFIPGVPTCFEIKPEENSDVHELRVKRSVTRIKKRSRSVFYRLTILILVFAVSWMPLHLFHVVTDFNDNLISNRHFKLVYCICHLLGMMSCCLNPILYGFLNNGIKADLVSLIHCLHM
# Experiment: cell-based or functional assay
row,Binder,NPY5R pEC50
1,B1,"8.4 -Log(EC50, M)"
2,PKPEAPGK([γGlu-γGlu-C20 diacid])DASPEEWNRYYADLRHYLNWLTRQR[Phe(4-COOH)]-NH2 [Compound A59],"6 -Log(EC50, M)"
3,B2,"9 -Log(EC50, M)"
